Laboratory results: patent US20130071381A1 (Takeda / Millennium, published 2013)
Values joined by “and” are separate entries in the source; they are usually repeats but may differ in a detail not shown here. Equal values may be shown once.

Experiments:
[1] = molecular target: T1, CCR1 expressed on L1/2 transfectants (UniProt P32246 1-355, limits assumed); assay: flow cytometry on L1/2 transfectants, hybridoma supernatant
T1 construct: whole, on cells; also called CCR1 transfectants
T1 sequence (looked up): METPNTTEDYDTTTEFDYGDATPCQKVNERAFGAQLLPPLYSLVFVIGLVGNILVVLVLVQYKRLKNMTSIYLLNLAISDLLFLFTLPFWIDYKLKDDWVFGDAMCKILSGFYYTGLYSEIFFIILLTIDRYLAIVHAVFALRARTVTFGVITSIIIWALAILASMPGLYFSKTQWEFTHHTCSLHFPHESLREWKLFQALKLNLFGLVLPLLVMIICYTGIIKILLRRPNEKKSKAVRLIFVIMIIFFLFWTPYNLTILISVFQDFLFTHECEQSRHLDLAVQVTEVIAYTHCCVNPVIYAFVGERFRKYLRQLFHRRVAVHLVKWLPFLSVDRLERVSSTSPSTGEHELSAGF
Protocol: (§1) For the staining of cultured transfectant cell lines 0.5×10⁶ cells in 50 μl were resuspended in PBS+1% FCS in a 96 well polystyrene V-bottom plate. 50 μl of primary antibody supernatants or HT medium (negative control) were added, and the samples were incubated at 4° C. for 30 min. 100 μl of PBS were added and the cells were pelleted by centrifugation and washed once with PBS. The pellet was resuspended in 100 μl PBS+1% FCS containing FITC-conjugated goat anti-mouse IgG antibody (a 1:250 dilution) and incubated for thirty minutes at […] in the dark. The cells were washed twice with PBS, resuspended in PBS, and analyzed by flow cytometry with a FacScan cytometer using the CellQuest software (Becton-Dickenson) Cells were fixed with PBS/1% formaldehyde if they were not to be analyzed the same day. Monoclonal antibodies 1D9 and 8G2 stain CCR2 transfectants but not CCR1 or CCR5 transfectants (FIGS. 1A-10).

[2] = molecular target: T2, CCR5 expressed on L1/2 transfectants (UniProt P51681 1-352, limits assumed); assay: as above
T2 construct: whole, on cells; also called CCR5 transfectants
T2 sequence (P51681 whole entry): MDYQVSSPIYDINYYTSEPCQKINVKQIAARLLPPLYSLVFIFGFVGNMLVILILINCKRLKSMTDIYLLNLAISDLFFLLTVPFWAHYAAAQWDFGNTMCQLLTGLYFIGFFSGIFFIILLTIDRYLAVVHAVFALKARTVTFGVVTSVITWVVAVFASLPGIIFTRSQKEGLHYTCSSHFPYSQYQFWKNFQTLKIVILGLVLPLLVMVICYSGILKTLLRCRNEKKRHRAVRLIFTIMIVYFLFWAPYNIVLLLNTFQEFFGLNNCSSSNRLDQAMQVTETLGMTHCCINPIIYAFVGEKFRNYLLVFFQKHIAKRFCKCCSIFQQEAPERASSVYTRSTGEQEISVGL
Protocol: as §1

[3] = molecular target: T3, human CC-chemokine receptor 2 (CCR2), endogenous on THP-1 cells, THP-1 membranes and human blood cells (human, UniProt P41597 1-374); assay: competition with 0.1 nM [125I]MCP-1 on fresh PBMC, filtration and scintillation counting
T3 construct: whole, on cells; The isoform is not specified for THP-1 cells or PBMC; also called CKR-2; MCP-1RA
T3 sequence (P41597 whole entry, canonical isoform): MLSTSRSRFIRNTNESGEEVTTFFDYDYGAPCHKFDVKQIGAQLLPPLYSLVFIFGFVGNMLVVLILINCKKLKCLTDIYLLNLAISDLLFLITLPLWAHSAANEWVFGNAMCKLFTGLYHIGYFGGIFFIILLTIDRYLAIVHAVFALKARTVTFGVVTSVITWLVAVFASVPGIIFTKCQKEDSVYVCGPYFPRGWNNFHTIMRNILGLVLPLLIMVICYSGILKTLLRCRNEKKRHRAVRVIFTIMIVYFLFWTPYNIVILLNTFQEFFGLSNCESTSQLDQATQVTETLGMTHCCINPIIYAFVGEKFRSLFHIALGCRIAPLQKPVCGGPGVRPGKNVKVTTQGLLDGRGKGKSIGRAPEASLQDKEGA
Protocol: (§2) MCP-1 binding was performed in a final volume of 0.1 ml of 50 mM Hepes pH 7.4, 1 mM CaCl₂, 5 mM MgCl₂, 0.02% sodium azide, 0.5% BSA (HBB), containing either 2.5 μg THP-1 membrane protein or 500,000 PBMC and 0.1 nM of [¹²⁵I]-MCP-1. Competition binding experiments were performed by including variable concentrations of unlabeled MCP-1, 1D9 antibody, or a negative control IgG2a. Nonspecific binding was determined following the addition of a 2500-fold excess of unlabeled MCP-1. Samples were incubated for 60 minutes at room temperature, and bound and free tracer were separated by filtration through 96-well GF/B filterplates presoaked in 0.3% polyethyleneimine. The filters were washed in HBB further supplemented with 0.5 M NaCl, dried, and the amount of bound radioactivity determined by liquid scintillation counting. mAb 1D9 inhibits [¹²⁵I]MCP-1 binding to THP-1 cell membranes with an IC₅₀ of about 0.004 μg/ml (approximately 0.02 nM; FIG. 4) and to fresh PBMC with an IC₅₀ of 0.04 μg/ml (approximately 0.2 nM; FIG. 5).

[4] = molecular target: T3, human CC-chemokine receptor 2 (CCR2), …; assay: competition with 0.1 nM [125I]MCP-1 on THP-1 cell membranes, filtration and scintillation counting
Protocol: FIG. 4 illustrates that mAb 1D9 inhibits [¹²⁵I]MCP-1 binding to THP-1 cell membranes. 3.0 μg of THP-1 membrane protein was incubated with 0.1 nM [¹²⁵I]MCP-1 in the presence of various concentrations of 1D9 or the isotype-matched anti-CXCR3 antibody 1C6. The amount of bound tracer was determined by separation of free from bound by filtration and scintillation counting. The data was analyzed to determine the IC₅₀ value by non-linear regression using a 4-parameter logistic equation with KaleidaGraph software.
as §2, with “Samples were incubated for 60 minutes at room temperature, and bound and free tracer were separated by filtration through 96-well GF/B filterplates presoaked in 0.3% polyethyleneimine.” left out

B1: murine monoclonal antibody LS132.1D9 (antibody, V domains shown)
VH: EVQLVESGGGLVQPKGSLKLSCAASGFSFNAYAMNWVRQAPGKGLEWVARIRTKNNNYATYYADSVKDRYTISRDDSESMLFLQMNNLKTEDTAMYYCVTFYGNGVWGTGTTVTVSS
VL: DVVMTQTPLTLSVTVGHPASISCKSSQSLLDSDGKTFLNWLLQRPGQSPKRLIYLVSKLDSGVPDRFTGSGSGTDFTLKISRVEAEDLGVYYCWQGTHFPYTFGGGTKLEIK
notes: Whole murine monoclonal antibody from hybridoma ATCC HB-12549, with a kappa light chain; The controls are called isotype-matched or murine IgG2a, which implies IgG2a; It was used as hybridoma supernatant in the FACS staining; also called mAb 1D9; mus-1D9
binding result [1]: no binding
binding result [2]: no binding
IC50 [3]: 0.04 µg/mL and ~0.2 nM
IC50 [4]: ~0.004 µg/mL and ~0.02 nM
